This note sets out measurements from patent publication US20220227887A1 (ONO PHARMACEUTICAL, published 2022).

Test [1] has as its target T1, monomeric mouse LAG3-EC (strep-tagged) (mouse, UniProt Q61790 24-422, limits assumed).
T1 construct: It was immobilized on a streptavidin-coated biosensor; also called mouse LAG3 soluble protein; not shown: C-terminal strep tag
T1 sequence: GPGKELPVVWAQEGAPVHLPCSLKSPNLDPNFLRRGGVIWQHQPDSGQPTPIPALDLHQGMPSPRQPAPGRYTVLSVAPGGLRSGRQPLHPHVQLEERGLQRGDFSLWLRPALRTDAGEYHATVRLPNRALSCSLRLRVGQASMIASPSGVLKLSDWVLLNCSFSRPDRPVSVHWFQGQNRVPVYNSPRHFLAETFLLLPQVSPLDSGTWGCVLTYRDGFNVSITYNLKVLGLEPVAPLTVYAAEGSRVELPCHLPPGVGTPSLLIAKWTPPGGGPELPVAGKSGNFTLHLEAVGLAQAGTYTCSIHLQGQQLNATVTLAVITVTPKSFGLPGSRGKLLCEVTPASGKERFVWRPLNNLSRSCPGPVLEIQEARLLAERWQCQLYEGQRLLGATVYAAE
Nature of the test: biolayer interferometry (BLItz), strep-tagged monomeric mouse LAG3-EC on the biosensor, antibody at 66.67, 200, 666.7 and 2000 nM. The method, then: (§1) The binding affinity of anti-mouse LAG3 antibodies (TKB58 and C9B7W) to a mouse LAG3 soluble protein was measured by biolayer interferometry. Briefly, cDNA fragments encoding D1 to D4 (LAG3-EC) of mouse LAG3 were amplified by PCR. A strep tag was added to the C-terminus of LAG3-EC. The chimeric cDNA was cloned into an expression vector modified from pEBMulti-Neo (Wako). Plat-E cells were transfected with the plasmid using Avalanche-Omni Transfection Reagent (EZ Biosystems) and the culture supernatant was collected after 48 hours. Monomeric mouse LAG3-EC (strep-tagged) was immobilized on a streptavidin-coated biosensor chip (Pall ForteBio) and binding of anti-mouse LAG3 antibodies at various concentrations was monitored with BLItz (Pall ForteBio). The chips were washed with PBS and the dissociation rates were analyzed. The binding rate constant (ka), the dissociation rate constant (kd), and the dissociation constant […] were calculated with BLItz Pro software. In TKB58, as compared with a case in C9B7W, ka was about 26 times faster and kd was 3.6 times slower.
In general terms: Biolayer interferometry detects binding as a change in optical thickness at a sensor tip.

The target in test [2] is T1, monomeric mouse LAG3-EC (strep-tagged). In words: biolayer interferometry (BLItz); reference C9B7W. The method, then:
as §1

The target of test [3] is T2, mouse LAG3 (wild type), forcibly expressed on DO11.10 or B3Z cells (mouse, UniProt Q61790 24-521).
T2 construct: The whole entry is named; also called mLAG3; mLAG3 WT
T2 sequence: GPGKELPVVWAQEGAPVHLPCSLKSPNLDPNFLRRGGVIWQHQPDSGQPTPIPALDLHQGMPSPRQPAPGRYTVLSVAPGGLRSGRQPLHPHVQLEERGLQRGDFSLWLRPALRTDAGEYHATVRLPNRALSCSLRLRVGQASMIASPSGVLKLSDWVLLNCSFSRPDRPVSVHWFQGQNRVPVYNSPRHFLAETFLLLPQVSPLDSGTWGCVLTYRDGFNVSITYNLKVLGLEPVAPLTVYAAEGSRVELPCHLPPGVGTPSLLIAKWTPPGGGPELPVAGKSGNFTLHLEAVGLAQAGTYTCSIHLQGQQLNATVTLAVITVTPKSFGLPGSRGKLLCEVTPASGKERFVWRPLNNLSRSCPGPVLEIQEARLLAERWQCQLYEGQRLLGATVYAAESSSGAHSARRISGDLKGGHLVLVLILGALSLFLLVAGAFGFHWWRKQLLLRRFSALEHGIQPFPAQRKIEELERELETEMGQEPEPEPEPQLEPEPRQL
Nature of the test: flow cytometry of cells stained with culture supernatant. The source says: A nucleic acid encoding the heavy and light chain variable regions of an anti-mouse LAG3 antibody (TKB58) and an anti-mouse CD8 antibody (YTS169) was synthesized, amplified by PCR, and was cloned into an expression plasmid vector produced by modifying pEBMulti-Neo (Wako), whereby an expression plasmid of a bispecific molecule TKB58xYTS169 (SEQ ID NO: 33) recognizing mouse LAG3 and mouse CD8 was produced. The expression plasmid was transfected into PlatE cells using Avalanche-Omni Transfection Reagent (EZ Biosystems), and the culture supernatant was collected after 48 hours. DO11.10, DO11.10-mLAG3, B3Z, and B3Z-mLAG3 cells were stained using the culture supernatant.
For orientation: In flow cytometry, cells or beads pass a laser one at a time.

The target of test [4] is T2, mouse LAG3 (wild type), forcibly …. Nature of the test: flow cytometry of DO11.10-mLAG-3 cells (CD3ε +, LAG-3 +) stained with culture supernatant, detected with anti-FLAG tag antibody. The source says: A nucleic acid encoding the heavy and light chain variable regions of an anti-mouse LAG3 antibody (TKB58) and an anti-mouse CD3s antibody (2C11) was synthesized, amplified by PCR, and was cloned into an expression plasmid vector produced by modifying pEBMulti-Neo (Wako) or pSecTag2/Hygro (Thermo Fisher Scientific), whereby expression plasmids of bispecific molecules 2C11xTKB58 (SEQ ID NO: 31) and TKB58x2C11 (SEQ ID NO: 32) recognizing mouse LAG3 and […] were produced. The expression plasmid was transfected into PlatE cells using Avalanche-Omni Transfection Reagent (EZ Biosystems), and the culture supernatant was collected after 48 hours. BW5147, DO11.10, and DO11.10-mLAG3 cells were stained using the culture supernatant.

In test [1], anti-mouse LAG3 antibody C9B7W registered a Kd of 414 nM, a koff of 0.00392 s⁻¹ and an on-rate (kon) of 9480 M⁻¹ s⁻¹.

B1: anti-mouse LAG3 antibody TKB58 (antibody, V domains shown)
VH: VQLQQSGAELVRPGALVKLSCKASGFNIKDYYMHWVKQRPEQGLEWIGWIDPENGNTIYDPKFQDKASLTADTSSNTAYLQLSSLTSEDTAVYYCAPERGYDYAMDYWGQGTSVTVSS
VL: IVLTQSPATLSVTPGDSVSLSCRASQSISNNLHWYQQKSHESPRLLIKYASQSISGIPSRFSGSGSGTDFTLSINSVETEDFGMYFCQQSNSWPQYTFGGGTKLEIK
notes: Full-form antibody; also called TKB58 antibody; full-form anti-mouse LAG3 antibody
As to B1, in test [2], the “fold faster ka against C9B7W” value is around 26 times, the “fold lower KD against C9B7W” value came out at 94 times and the “fold slower kd against C9B7W” value was determined as 3.6 times. Further, in test [1], the Kd turned out to be 4.39 nM, the koff was 0.0011 s⁻¹ and the kon came out at 251000 M⁻¹ s⁻¹.

B2: bispecific molecule TKB58xYTS169 (bispecific antibody)
chain: DAAQPARVQLQQSGAELVRPGALVKLSCKASGFNIKDYYMHWVKQRPEQGLEWIGWIDPENGNTIYDPKFQDKASLTADTSSNTAYLQLSSLTSEDTAVYYCAPERGYDYAMDYWGQGTSVTVSSGGGGSDIVLTQSPAMAMSPGERITISCRASESVSTRMHWYQQKPGQQPKLLIYGASNLESGVPARFSGSGSGTDFTLTIDPVEANDTATYFCQQSWYDPWTFGGGTKLELKGGGGSGGGGSGGGGSEVKLQESGGGLVQPGRSLKLSCAASGFNFNDYWMGWVRQAPGKGLEWIGEINKDSSTINYTPSLKDKFTISRDNAQNTLYLQMSKLGSEDTAIYYCARARGMMVLIIPHYFDYWGQGVMVTVSSTGGGGSIVLTQSPATLSVTPGDSVSLSCRASQSISNNLHWYQQKSHESPRLLIKYASQSISGIPSRFSGSGSGTDFTLSINSVETEDFGMYFCQQSNSWPQYTFGGGTKLEIKGGGGSDYKDDDDKNSAVDHHHHHH
notes: Used as culture supernatant of transfected PlatE cells
As for B2, the binding result in test [3] is “binds”.

B3: bispecific molecule 2C11xTKB58 (bispecific antibody)
chain: DAAQPAREVQLVESGGGLVQPGKSLKLSCEASGFTFSGYGMHWVRQAPGRGLESVAYITSSSINIKYADAVKGRFTVSRDNAKNLLFLQMNILKSEDTAMYYCARFDWDKNYWGQGTMVTVSSGGGGSIVLTQSPATLSVTPGDSVSLSCRASQSISNNLHWYQQKSHESPRLLIKYASQSISGIPSRFSGSGSGTDFTLSINSVETEDFGMYFCQQSNSWPQYTFGGGTKLEIKGGGGSGGGGSGGGGSVQLQQSGAELVRPGALVKLSCKASGFNIKDYYMHWVKQRPEQGLEWIGWIDPENGNTIYDPKFQDKASLTADTSSNTAYLQLSSLTSEDTAVYYCAPERGYDYAMDYWGQGTSVTVSSGGGGSDIQMTQSPSSLPASLGDRVTINCQASQDISNYLNWYQQKPGKAPKLLIYYTNKLADGVPSRFSGSGSGRDSSFTISSLESEDIGSYYCQQYYNYPWTFGPGTKLEIKGGGGSDYKDDDDKNSAVDHHHHHH
notes: as for B2
As for B3, the binding result in test [4] is given as “binds”.

For orientation: Kd means the equilibrium constant for the complex coming apart. Lower therefore signals tighter binding. What is called koff is a measure of how fast the partners let go of each other. Higher therefore signals a short-lived complex. Usually kon stands for a measure of how fast the partners come together. A higher kon goes with fast association.
